Test results taken from US20100284934A1.

Key:
[1] = molecular target: aggregated recombinant human α-synuclein produced by aging (amyloid fibrils) (human) (UniProt P37840); experiment: ELISA, α-synuclein coated at 100 pmol/well, range of peptide concentrations
[2] = molecular target: aggregated recombinant human α-synuclein produced by aging (amyloid fibrils) (human) (UniProt P37840); experiment: ELISA, α-synuclein coated at 200 pmol/well, range of peptide concentrations
[3] = molecular target: dopamine treated recombinant human α-synuclein (soluble aggregates, oligomers) (human) (UniProt P37840); experiment: ELISA, α-synuclein coated, peptide in solution

Row | lowest binding concentration detected [1] [pmol/well] | lowest binding concentration detected [2] [pmol/well] | lowest binding concentration detected [3] [pmol/well] | Substance
1 | 10 | – | – | OR1, Gd-DOTA-rGtvvaGK(biotin)-rrrrrr (peptide)
2 | 10 | – | – | OR2, Gd-DOTA-rGvvaGK(biotin)-rrrrrr (peptide)
3 | – | 10 | – | OR3, Gd-DOTA-rrrrrrGtvvaGK(biotin)-r (peptide)
4 | – | 10 | – | OR4, Gd-DOTA-rrrrrrGvvaGK(biotin)-r (peptide)
5 | – | 10 | 1 | OR5, Gd-DOTA-r-Sar-vva-Sar-K(biotin)-rrrrrr (peptide)
